Results as given in patent US10457718B2, “Compounds for the treatment of cancer” (Rheinisch-Westfaelische Technische Hochschule Aachen, priority 2015, dated 2019).

Key:
[1] = test system: MDA-MB231 breast cancer cells; assay: short-term cell number WST assay / XTT proliferation assay of small peptides; assay type: cell-based, human; conditions: 300 ng/ml
Excerpt: FIG. 6 presents diagrams showing the tumor suppressive impact of small peptides derived from ITIH5 on aggressive MDA-MB231 breast cancer cells. Growth inhibition mediated by chemically synthesized ITIH5-derived peptides using a short-term cell number WST assay.
These small protein fragments can be further optimized (stabilization, modification) to obtain suitable candidates for novel anti-tumor drugs. Use of biological drugs in targeted cancer therapy is a strongly growing area in cancer care.

[2] = test system: MDA-MB231 breast cancer cells; assay: short-term cell number assay (CASY cell counter); assay type: cell-based, human; conditions: for inhibition of tumor cell growth: dose dependent, maximal effect
Description: (§1) Various functional readout systems were available to determine the tumor suppressive impact of 1-681_ITIH5 treatment in vitro: A) Cell number assay: Numbers of living cells were quantified after four days of culturing using the CASY cell counter and analyzer (Roche Diagnostics, Mannheim, Germany). B) XTT proliferation assay: the cell proliferation KIT (XTT) was used according to the manufacturer's recommendations (Roche). C) Colony formation assay: 1×10^3 cells were seeded into six-well plates. After 14 days of culturing grown colonies were fixed with 3.5% formaldehyde/80% methanol and stained with 0.1% crystal violet. D) Wound healing assay: a confluent monolayer was scratched with a pipette tip. Afterwards cell migration within the wounded area was analyzed by using a light microscope over three days.
as §1, with “Highly purified peptides were used for functional in vitro validation. Various” for “Various”, “ITIH5 protein subfragments” for “1-681_ITIH5 treatment”, “B)” for “B) XTT proliferation assay: the cell proliferation KIT (XTT) was used according to the manufacturer's recommendations (Roche). C)”, “violet. C) In order to ensure specificity of observed effects of the ITIH5 subfragments a LDH Cytotoxicity Detection Kit (Roche) was performed according to the manufacturer's recommendations.” for “violet.”

[3] = test system: MDA-MB231 breast cancer cells; assay: long-term colony formation assay; assay type: cell-based, human; conditions: p<0.001
Description: as §1

[4] = stability in supernatant of treated cancer cells (western blot); assay type: in vitro ADME; conditions: 1 μg/ml added to supernatant of MDA-MB231 cells; western blotting
Description: FIG. 2 is a diagram showing the performance of the recombinant 1-681_ITIH5 in vitro. A) Persisting stability of 1-681_ITIH5 over 48 h in vitro. 1 μg/ml of 1-681_ITIH5 was added to the supernatant of MDA-MB231 breast cancer cells. To the given time points 1 ml of the supernatant was harvested and non-degraded 1-681_ITIH5 was isolated and analyzed by western blotting (as shown). B) LDH cytotoxicity assay.
Before applying 1-681_ITIH5 in vitro both the stability and the purity were tested by using a western blot analysis.

[5] = test system: MDA-MB231 breast cancer cells; assay: LDH Cytotoxicity Detection assay; assay type: cell-based, human; conditions: after 72 h vs controls
Description: (§2) In order to ensure specificity of observed effects of 1-681_ITIH5, a LDH Cytotoxicity Detection assay (Roche) was performed according to the manufacturer's recommendations. Furthermore MDA-MB231 single cell clones were generated which stably express ITIH5 protein under a strong CMV promoter. These endogenous ITIH5-positive clones are optimal control cells, i.e. those ITIH5-positive cells should not show further sensitivity against 1-681_ITIH5 in growth inhibitory experiments.
Highly purified peptides were used for functional in vitro validation. Various functional readout systems were available to determine the tumor suppressive impact of ITIH5 protein subfragments in vitro: A) Cell number assay: Numbers of living cells were quantified after four days of culturing using the CASY cell counter and analyzer (Roche Diagnostics, Mannheim, Germany). B) Colony formation assay: 1×10^3 cells were seeded into six-well plates. After 14 days of culturing grown colonies were fixed with 3.5% formaldehyde/80% methanol and stained with 0.1% crystal violet. C) In order to ensure specificity of observed effects of the ITIH5 subfragments a LDH Cytotoxicity Detection Kit (Roche) was performed according to the manufacturer's recommendations. […] Afterwards cell migration within the wounded area was analyzed by using a light microscope over three days.

[6] = test system: MDA-MB231 endogenously ITIH5 positive cells; assay: colony formation assay in ITIH5-expressing single cell clones; assay type: cell-based, human; conditions: MDA-MB231 clones stably expressing ITIH5
Description: as §1, §2

[7] = test system: BT20 breast cancer cell line; assay: colony formation assay; assay type: cell-based, human
Description: as §1

[8] = test system: T47D breast cancer cell line; assay: colony formation assay; assay type: cell-based, human
Description: as §1

[9] = test system: SK-MES1 lung cancer cells; assay: XTT proliferation assay; assay type: cell-based, human; conditions: dose-dependent
Description: as §1

[10] = test system: MDA-MB231 breast cancer cells; assay: scratch wound healing assay (cell migration); assay type: cell-based, human; conditions: over 3 days
Description: as §1
Highly purified peptides were used for functional in vitro validation. Various functional readout systems were available to determine the tumor suppressive impact of ITIH5 protein subfragments in vitro: A) Cell number assay: Numbers of living cells were quantified after four days of culturing using the CASY cell counter and analyzer (Roche Diagnostics, Mannheim, Germany). B) Colony formation assay: 1×10^3 cells were seeded into six-well plates. […] Afterwards cell migration within the wounded area was analyzed by using a light microscope over three days.

A549 lung cancer cells [11] = assay: short-term cell number assay (CASY cell counter); assay type: cell-based, human; conditions: dose dependent, maximal effect
Description: (§3) Highly purified peptides were used for functional in vitro validation. Various functional readout systems were available to determine the tumor suppressive impact of ITIH5 protein subfragments in vitro: A) Cell number assay: Numbers of living cells were quantified after four days of culturing using the CASY cell counter and analyzer (Roche Diagnostics, Mannheim, Germany). B) Colony formation assay: 1×10^3 cells were seeded into six-well plates. After 14 days of culturing grown colonies were fixed with 3.5% formaldehyde/80% methanol and stained with 0.1% crystal violet. C) In order to ensure specificity of observed effects of the ITIH5 subfragments a LDH Cytotoxicity Detection Kit (Roche) was performed according to the manufacturer's recommendations. D) Wound healing assay: a confluent monolayer was scratched with a pipette tip. Afterwards cell migration within the wounded area was analyzed by using a light microscope over three days.

A549 lung cancer cells [12] = assay: LDH Cytotoxicity Detection assay; assay type: cell-based, human; conditions: after 72 h vs controls
Description: as §3

Q: With “#102: chemically synthesized peptide derived from the ITIH5 vWA domain (YFAPKDLPPLPKNVVFVLDS; isolated peptide)” as the molecule, how does the “cancer cell growth, single peptides” value [1] read?
A: significant impairment of cancer cell growth

Q: With “#26: chemically synthesized peptide derived from the ITIH5 VIT-domain (SVKSTIISRYAFTTVSCRML; isolated peptide)” as the molecule, how does the “cancer cell growth, single peptides” value [1] read?
A: significant impairment of cancer cell growth

Q: For “#108: chemically synthesized peptide derived from the ITIH5 vWA domain (DSSASMVGTKLRQTKDALFT; isolated peptide)”, which “cancer cell growth, single peptides” value [1] is on record?
A: significant impairment of cancer cell growth

Q: For “#98: chemically synthesized peptide derived from the ITIH5 vWA domain (GDIQVLNGYFVHYFAPKDLP; isolated peptide)”, which “cancer cell growth, single peptides” value [1] is on record?
A: significant impairment of cancer cell growth

Q: For “#32: chemically synthesized peptide derived from the ITIH5 VIT-domain (MLNRASEDQDIEFQMQIPAA; isolated peptide)”, which “cancer cell growth, single peptides” value [1] is on record?
A: significant impairment of cancer cell growth

Q: Which “cancer cell growth, single peptides” value [1] does the source give for “#111: chemically synthesized peptide derived from the ITIH5 vWA domain (KLRQTKDALFTILHDLRPQD; isolated peptide)” here?
A: significant impairment of cancer cell growth

B1: 213_vWA: isolated recombinant polypeptide comprising only the vWA domain of ITIH5, 213 amino acids (protein)
chain: GYFVHYFAPKDLPPLPKNVVFVLDSSASMVGTKLRQTKDALFTILHDLRPQDRFSIIGFSNRIKVWKDHLISVTPDSIRDGKVYIHHMSPTGGTDINGALQRAIRLLNKYVAHSGIGDRSVSLIVFLTDGKPTVGETHTLKILNNTREAARGQVCIFTIGIGNDVDFRLLEKLSLENCGLTRRVHEEEDAGSQLIGFYDEIRTPLLSDIRIDY
modifications: “vWA” domain of the inter-alpha-trypsin inhibitor heavy chain
Q: Which “inhibition of tumor cell growth” value [2] does the source give for B1 here?
A: up to 30%

B2: 1-681_ITIH5: recombinant isolated polypeptide, amino acids 1-681 of the full-length ITIH5 protein (942 amino acids) (protein)
chain: MLLLLGLCLGLSLCVGSQEEAQSWGHSSEQDGLRVPRQVRLLQRLKTKPLMTEFSVKSTIISRYAFTTVSCRMLNRASEDQDIEFQMQIPAAAFITNFTMLIGDKVYQGEITEREKKSGDRVKEKRNKTTEENGEKGTEIFRASAVIPSKDKAAFFLSYEELLQRRLGKYEHSISVRPQQLSGRLSVDVNILESAGIASLEVLPLHNSRQRGSGRGEDDSGPPPSTVINQNETFANIIFKPTVVQQARIAQNGILGDFIIRYDVNREQSIGDIQVLNGYFVHYFAPKDLPPLPKNVVFVLDSSASMVGTKLRQTKDALFTILHDLRPQDRFSIIGFSNRIKVWKDHLISVTPDSIRDGKVYIHHMSPTGGTDINGALQRAIRLLNKYVAHSGIGDRSVSLIVFLTDGKPTVGETHTLKILNNTREAARGQVCIFTIGIGNDVDFRLLEKLSLENCGLTRRVHEEEDAGSQLIGFYDEIRTPLLSDIRIDYPPSSVVQATKTLFPNYFNGSEIIIAGKLVDRKLDHLHVEVTASNSKKFIILKTDVPVRPQKAGKDVTGSPRPGGDGEGDPNHIERLWSYLTTKELLSSWLQSDDEPEKERLRQRAQALAVSYRFLTPFTSMKLRGPVPRMDGLEEAHGMSAAMGPEPVVQSVRGAGTQPGPLLKKPYQPRIKISKTSVDGD
modifications: polypeptide 1-681_ ITIH5
Q: With B2 as the molecule, how does the Growth inhibition ([2]; 100 ng/ml medium, repeated experiments) read?
A: up to 20%

Q: And the Growth inhibition ([2]; 1 μg/ml medium, highly significant)?
A: up to 50%

Q: What about the “colony growth after 14 days in culture (densitometrical evaluation)” value [3] of the same molecule?
A: significantly impairs colony growth

Q: What about the “stability in the supernatant of treated cancer cells” value [4] of the same molecule?
A: ≥ 48 h

Q: What about the “unspecific cytotoxicity (LDH)” value [5] of the same molecule?
A: no unspecific cytotoxicity

Q: What about the “growth inhibition in ITIH5-positive cells” value [6] of the same molecule?
A: not able to mediate growth inhibition

Q: And the colony growth [7]?
A: significantly reduced colony growth

Q: What about the colony growth [8] of the same molecule?
A: significantly reduced colony growth

Q: What about the “cell growth inhibition (XTT)” value [9] of the same molecule?
A: strongly mediates cell growth inhibition

Q: What about the “tumor cell migration / cell motility” value [10] of the same molecule?
A: impairs furthermore tumor cell migration

B3: 1-162_VIT: isolated recombinant polypeptide comprising only the VIT domain of ITIH5, amino acid 1 to 162 (protein)
chain: MLLLLGLCLGLSLCVGSQEEAQSWGHSSEQDGLRVPRQVRLLQRLKTKPLMTEFSVKSTIISRYAFTTVSCRMLNRASEDQDIEFQMQIPAAAFITNFTMLIGDKVYQGEITEREKKSGDRVKEKRNKTTEENGEKGTEIFRASAVIPSKDKAAFFLSYEE
modifications: VIT- domain of the inter-alpha-trypsin inhibitor heavy chain
Q: With B3 as the molecule, how does the “inhibition of tumor cell growth” value [2] read?
A: up to 40%

Q: And the “unspecific cytotoxicity (LDH)” value [5]?
A: no unspecific cytotoxicity

Q: What about the “tumor cell migration / cell motility” value [10] of the same molecule?
A: clearly suppresses cell motility

Q: What about the “inhibition of tumor cell growth” value (A549 lung cancer cells [11]) of the same molecule?
A: up to 40%

Q: And the “unspecific cytotoxicity (LDH)” value (A549 lung cancer cells [12])?
A: no unspecific cytotoxicity
